Test [1] concerns the target T1, cynomolgus monkey 4-1BB on CHO-K1 cells (cynomolgus monkey).
T1 chain: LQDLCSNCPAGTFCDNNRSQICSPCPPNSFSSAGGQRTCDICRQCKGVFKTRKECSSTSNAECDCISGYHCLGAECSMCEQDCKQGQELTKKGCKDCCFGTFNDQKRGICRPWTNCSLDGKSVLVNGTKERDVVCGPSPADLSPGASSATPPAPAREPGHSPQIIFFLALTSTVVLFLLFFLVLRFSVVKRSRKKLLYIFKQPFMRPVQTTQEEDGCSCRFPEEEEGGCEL
Put plainly: FACS. On the technique in general: A flow cytometer gives signals particle by particle.

Test [2] concerns the target human PD-L1 on CHO-K1 cells (human, UniProt Q9NZQ7 19-290). Put plainly: FACS.
Test [3] deals with T2, human 4-1BB on CHO-K1 cells (human, UniProt Q07011 24-255). In words: FACS.
Test [4] has as its target T1, cynomolgus monkey 4-1BB on CHO-K1 cells. Put plainly: FACS; FIG. 12H.
Test [5] concerns the target T2, human 4-1BB on CHO-K1 cells. In words: FACS blocking of 4-1BBL; FIG. 14G.
Test [6] has the same target. In words: FACS; FIG. 11I.
Test [7] shares this target. Put plainly: FACS blocking of 4-1BBL binding.
For test [8] the target is unchanged. Put plainly: FACS; FIG. 11H.
For test [9], the target named is T1, cynomolgus monkey 4-1BB on CHO-K1 cells. In words: FACS; FIG. 12G.
The target is the same in test [10]. Put plainly: FACS; FIG. 12F.
Test [11] addresses T2, human 4-1BB on CHO-K1 cells. Put plainly: FACS. The source holds these as a separate data set.
Target sequence in this assay (Q07011 24-255): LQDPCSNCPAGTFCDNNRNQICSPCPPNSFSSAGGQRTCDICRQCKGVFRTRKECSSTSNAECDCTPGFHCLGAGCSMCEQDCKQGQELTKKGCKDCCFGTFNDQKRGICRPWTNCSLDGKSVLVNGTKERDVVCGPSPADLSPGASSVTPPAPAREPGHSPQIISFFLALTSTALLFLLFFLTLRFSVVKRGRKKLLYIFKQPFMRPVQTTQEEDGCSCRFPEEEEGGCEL
Test [12] shares this target. In words: FACS blocking of 4-1BBL; FIG. 14F.
In test [13] the target is T1, cynomolgus monkey 4-1BB on CHO-K1 cells. In words: FACS; FIG. 12I.
The target of test [14] is T2, human 4-1BB on CHO-K1 cells. In words: FACS blocking of 4-1BBL; FIG. 14H.
Test [15] has the same target. Put plainly: FACS; FIG. 11J.

Positions count from the first letter of the chain named.

Sequence of human PD-L1 on CHO-K1 cells (Q9NZQ7 19-290): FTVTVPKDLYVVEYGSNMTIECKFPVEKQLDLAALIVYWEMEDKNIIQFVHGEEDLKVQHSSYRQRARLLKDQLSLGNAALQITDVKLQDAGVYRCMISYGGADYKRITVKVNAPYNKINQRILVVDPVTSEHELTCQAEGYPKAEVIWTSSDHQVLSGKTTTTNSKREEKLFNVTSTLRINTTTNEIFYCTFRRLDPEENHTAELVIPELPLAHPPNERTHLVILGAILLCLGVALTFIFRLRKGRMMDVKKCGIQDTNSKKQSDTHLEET

B1: PR003549 (bispecific antibody)
light: DIQMTQSPSTLSASVGDRVTVTCRASQSIYIWLAWYQQKPGKAPNLLIYKASSLETGVPSRFSGSGSGTEFTLTISSLQPDDFATYYCQQYYGSSRTFGQGTKVEIKRTVAAPSVFIFPPSDEQLKSGTASVVCLLNNFYPREAKVQWKVDNALQSGNSQESVTEQDSKDSTYSLSSTLTLSKADYEKHKVYACEVTHQGLSSPVTKSFNRGEC
heavy: EVQLVESGGGLVQPGGSLRLSCAASGFTFSSYWMSWVRQAPGKGLEWVANIKQEGSEKYYVDSVKGRFTISRDNAKNSLYLQMNSLRAEDTAVYYCARDRAVAGAFDIWGQGTMVTVSSASTKGPSVFPLAPSSKSTSGGTAALGCLVKDYFPEPVTVSWNSGALTSGVHTFPAVLQSSGLYSLSSVVTVPSSSLGTQTYICNVNHKPSNTKVDKKVEPKSCDKTHTCPPCPAPEAAGGPSVFLFPPKPKDTLMISRTPEVTCVVVDVSHEDPEVKFNWYVDGVEVHNAKTKPREEQYNSTYRVVSVLTVLHQDWLNGKEYKCKVSNKALGAPIEKTISKAKGQPREPQVYTLPPSREEMTKNQVSLTCLVKGFYPSDIAVEWESNGQPENNYKTTPPVLDSDGSFFLYSKLTVDKSRWQQGNVFSCSVMHEALHNHYTQKSLSLSPGEPKSSDKTHTPPPPPRTEVQLLESGGGLVQLGGSLRLSCAASGFTFSRYAMTWVRQAPEKGLEWVSSISGSGDDTYYGDSVKGRFTISRDNSQNTVYLQMNSLRAEDTAVYFCAKEKAGTTGDYYYNVDVWGQGTTVTVSS
On to B1, for which the values for the EC50 in test [1], in test [2] and in [3] were 1.86 nM, 1.56 nM and 1.9 nM, respectively.

B2: PR003550 (bispecific antibody)
light: B1 light
heavy: EVQLVESGGGLVQPGGSLRLSCAASGFTFSSYWMSWVRQAPGKGLEWVANIKQEGSEKYYVDSVKGRFTISRDNAKNSLYLQMNSLRAEDTAVYYCARDRAVAGAFDIWGQGTMVTVSSASTKGPSVFPLAPSSKSTSGGTAALGCLVKDYFPEPVTVSWNSGALTSGVHTFPAVLQSSGLYSLSSVVTVPSSSLGTQTYICNVNHKPSNTKVDKKVEPKSCDKTHTCPPCPAPEAAGGPSVFLFPPKPKDTLMISRTPEVTCVVVDVSHEDPEVKFNWYVDGVEVHNAKTKPREEQYNSTYRVVSVLTVLHQDWLNGKEYKCKVSNKALGAPIEKTISKAKGQPREPQVYTLPPSREEMTKNQVSLTCLVKGFYPSDIAVEWESNGQPENNYKTTPPVLDSDGSFFLYSKLTVDKSRWQQGNVFSCSVMHEALHNHYTQKSLSLSPGEPKSSDKTHTPPPPPRTEVQLVESGGGVVQPGGSLRLSCAASGFTFSNYAMTWVRQAPEKGLEWVSSISGSGVSTYYADSVKGRFTISRDNSKNTLYLQMTRLTAEDTAVYFCAKEGSSETDDHYYNVDVWGQGTTVTVSS
In the case of B2, the EC50 (in general, the concentration giving half of the maximal effect) was found to be 1.32 nM in test [1] and 1.11 nM in test [2].

B3: PR007286 (antibody, V domains shown)
VH: EVQLVESGGGLVKPGGSLRLSCAASGFTFSDYYMSWIRQAPGKGLEWVSYISSSGSTIYYADSVKGRFTISRDNAKNSLYLQMNSLRAEDTAVYYCARVKPVAGTWDWFDPWGQGTPVTVSS
As to B3, the EC50 in [4] amounted to 4.61 nM; in test [6], 4.37 nM. In test [5], the IC50 (usually the concentration that gives 50% inhibition) came out at 7.54 nM.

B4: PR000448 (antibody, V domains shown)
VH: QVQLQQWGAGLLKPSETLSLTCAVYGGSFSGYYWSWIRQPPGKGLEWIGEIQHSGSTDSNPSLKGRVTFSVDTSKNQFSLKLNSVTAADTAVYYCARLTGPFDYWGQGTLVTVSS
VL: EIVMTQSPATLSVSPGERATLSCRASQSISSILAWYQQKPGQAPRLLIYGASTRATGIPARFSGSGSGTEFTLTISSLQSEDFAVYYCQQYYNWPLTFGGGTKVEIKR
Consider B4, for which the EC50 in [7] was found to be 2.05 nM.

B5: PR004469 (antibody, V domains shown)
VH: EVQLLESGGGLVQPGGSLRLSCAASGFTFSNYAMSWFRQPPETGLKWVSSIDASGGDTYYADSVKGRFTISRDNSKNTLYLQMNSLRAEDTAVYYCAKEGSHGTDDSHYDVDVWGQGTTVTVSS
As for B5, the figures for the EC50 in test [8] and in [9] were 1.29 nM and 0.568 nM, respectively.

B6: PR001838 (antibody, V domains shown)
VH: B5 VH with A53G
On to B6, for which the EC50 amounted to 1.09 nM in [10], 0.851 nM in test [8], 0.248 nM in [11] and 0.329 nM in test [9]. Also, the IC50 in test [12] is 1.61 nM.

B7: PR007288 (antibody, V domains shown)
VH: EVQLVESGGGLVKPGGSLRLSCAASGFTFSDYYMSWFRQAPGKGLEWVSYISGSGSIIDYADSVKGRFTISRDNAKNSLYLQMNSLRAEDTAVYYCSREREAVAGTLDFDYWGQGTLVTVSS
On to B7, for which the concentration for a half-maximal effect (EC50) came out at 0.903 nM in test [4] and 1.21 nM in [6]. In [5], the IC50 worked out at 1.63 nM.

B8: PR007289 (antibody, V domains shown)
VH: B7 VH with G53S, I57T, I58Q, S97A, A102P, Y111N, L117P
For B8, the EC50 in test [13] worked out at 4.11 nM; in test [15] it was 2.49 nM. The same molecule had a half-maximal inhibitory concentration (IC50) in test [14] of 11 nM.

B9: PR007287 (antibody, V domains shown)
VH: B7 VH with V5E, G53S, I58T, S63A, T69N, S97A, Y111N
For the molecule B9, the results for the EC50 in test [4] and in test [6] were 1.17 nM and 1.55 nM, respectively. This molecule also returned an IC50 in test [5] of 2.55 nM.

B10: PR007290 (antibody, V domains shown)
VH: B7 VH with L11V, K13Q, G16R, G53S, S56T, I57T, S97A, A102E, L117P
For the molecule B10, the EC50 came to 2.5 nM in test [13] and 2.02 nM in [15]. For the same molecule, in test [14], the IC50 was 5.11 nM.

B11: PR007291 (antibody, V domains shown)
VH: EVQLVESGGGLVKPGGSLRLSCVTSGFTFSDYYMNWIRQAPGKGQEWVSYISGNGSTIYYADSVKGRFTISRDNAKNSLYLQMNSLRAEDTAVYYCARVRPGGSGNYWDWFDPWGQGTPVTVSS
For the molecule B11, the EC50 amounted to 1.95 nM in [13] and 2.47 nM in test [15]. Half-maximal inhibition in [14] (IC50) required 3.29 nM.

The values are drawn from patent US20230242658A1 (published 2023).
